Here are results for 1 substance from patent US5728561.

For experiment [1], the target named is E1-beta of plasmid pCD705, with the C-terminal part of the E1-beta open reading frame in the wrong orientation (Streptomyces avermitilis).
Experiment [2] has as its target E1-beta subunit of S. avermitilis BCKDH (Streptomyces avermitilis).

With “E1-alpha subunit of S. avermitilis BCKDH (enzyme)”, the E1 BCKDH specific activity in experiment [1] was 0.5 pmol/min/mg; in experiment [2], 13.7 pmol/min/mg.
